Data set [1] deals with C[C@H](CCC(=O)NCCS(=O)(=O)O)[C@H]1CC[C@H]2[C@@H]3CC[C@@H]4C[C@H](O)CC[C@]4(C)[C@H]3C[C@H](O)[C@]12C. As to the kind of experiment: purified protein. The conditions noted are these: pH 7.5; 37.0 °C.
Data set [2] deals with C[C@H](CCC(=O)NCCS(=O)(=O)O)[C@H]1CC[C@H]2[C@@H]3[C@@H](O)C[C@@H]4C[C@H](O)CC[C@]4(C)[C@H]3CC[C@]12C. As to the kind of experiment: purified protein. To be noted: pH 7.5; 37.0 °C.

Regarding “B. theta BSH (BT_2086) (Bacteroides thetaiotaomicron VPI-5482)”, in data set [1], the Km is reported as 3.4 mM, the catalytic constant (kcat) worked out at 0.215 ± 0.01 s⁻¹ and the kcat/Km was 63.3 ± 11.7 M⁻¹ s⁻¹. Moreover, in data set [2], the Michaelis constant (Km) worked out at 8.2 mM, the kcat was found to be 0.255 ± 0.0133 s⁻¹ and the kcat/Km is 31.7 ± 5 M⁻¹ s⁻¹.

Source of the values: paper PMC7036035.
